Test system: Escherichia coli TOP10
Experiment: shrunken log2 fold change of peptide-encoding DNA abundance (4.5 h post-induction vs induction); higher = less antimicrobial activity (less host growth inhibition)
Details: time post-induction: 4.5 h; library: site-saturation at positions 5, 18, 19, 20
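Note: peptides expressed intracellularly from a pBAD plasmid library in pooled LB shake-flask culture, induced with 0.3% L-arabinose, DNA abundance read by NGS, three biological replicates, DESeq2 with apeglm shrinkage.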

| Sequence | shrunken log2 fold change |
| --- | --- |
| RRIRVRPPRLPRPRPRPSIIPRP | -0.384 |
| RRIRARPPRLPRPRPRPPCSPRP | 0.752 |
| RRIRWRPPRLPRPRPRPASAPRP | 0.298 |
| RRIRPRPPRLPRPRPRPSCKPRP | -0.189 |
| RRIRMRPPRLPRPRPRPVSYPRP | -0.00671 |
| RRIRLRPPRLPRPRPRPAMHPRP | 0.0794 |
| RRIRIRPPRLPRPRPRPLYIPRP | -0.695 |
| RRIRFRPPRLPRPRPRPKLIPRP | -0.565 |
| RRIRVRPPRLPRPRPRPILLPRP | -0.815 |
| RRIRERPPRLPRPRPRPEEQPRP | 0.221 |
| RRIRWRPPRLPRPRPRPWNLPRP | -0.0421 |
| RRIRHRPPRLPRPRPRPTQEPRP | -0.0394 |
| RRIRHRPPRLPRPRPRPCVSPRP | -0.311 |
| RRIRTRPPRLPRPRPRPTNSPRP | -0.334 |
| RRIRERPPRLPRPRPRPNVAPRP | -0.186 |
| RRIRDRPPRLPRPRPRPECQPRP | -0.00804 |
| RRIRDRPPRLPRPRPRPWTMPRP | -0.0209 |
| RRIRLRPPRLPRPRPRPKKYPRP | -0.143 |
| RRIRSRPPRLPRPRPRPTEKPRP | 0.0802 |
| RRIRVRPPRLPRPRPRPNAHPRP | 0.038 |
| RRIRHRPPRLPRPRPRPPFQPRP | 0.0923 |
| RRIRSRPPRLPRPRPRPAINPRP | -0.131 |

| Sequence | shrunken log2 fold change |
| --- | --- |
| RRIRHRPPRLPRPRPRPPYGPRP | 0.0267 |
| RRIRTRPPRLPRPRPRPEQNPRP | 0.189 |
| RRIRVRPPRLPRPRPRPVCKPRP | -0.444 |
| RRIRVRPPRLPRPRPRPLDGPRP | -0.267 |
| RRIRIRPPRLPRPRPRPIFWPRP | 0.397 |
| RRIRVRPPRLPRPRPRPFMVPRP | -0.43 |
| RRIRVRPPRLPRPRPRPALGPRP | 0.423 |
| RRIRNRPPRLPRPRPRPYSQPRP | -0.0488 |
| RRIRLRPPRLPRPRPRPWLEPRP | -0.212 |
| RRIRWRPPRLPRPRPRPHSKPRP | 1.84 |
| RRIRMRPPRLPRPRPRPGCNPRP | 0.00293 |
| RRIRSRPPRLPRPRPRPDQIPRP | 0.0424 |
| RRIRVRPPRLPRPRPRPVFLPRP | -0.339 |
| RRIRFRPPRLPRPRPRPYYVPRP | -0.14 |
| RRIRRRPPRLPRPRPRPIMSPRP | -0.0839 |
| RRIRWRPPRLPRPRPRPNQFPRP | 0.0104 |
| RRIRVRPPRLPRPRPRPWKMPRP | -0.148 |
| RRIRFRPPRLPRPRPRPSGGPRP | -0.103 |
| RRIRNRPPRLPRPRPRPWCAPRP | -0.0696 |
| RRIRERPPRLPRPRPRPPGQPRP | 0.104 |
| RRIRYRPPRLPRPRPRPPCMPRP | -0.315 |
| RRIRERPPRLPRPRPRPWHMPRP | -0.0037 |

| Sequence | shrunken log2 fold change |
| --- | --- |
| RRIRNRPPRLPRPRPRPTWPPRP | 0.77 |
| RRIRIRPPRLPRPRPRPFGYPRP | -0.478 |
| RRIRSRPPRLPRPRPRPPYQPRP | 0.144 |
| RRIRYRPPRLPRPRPRPTSHPRP | -0.611 |
| RRIRLRPPRLPRPRPRPHSWPRP | 0.0861 |
| RRIRLRPPRLPRPRPRPYHCPRP | -0.575 |
| RRIRLRPPRLPRPRPRPTCNPRP | -0.4 |
| RRIRERPPRLPRPRPRPWCMPRP | -0.533 |
| RRIRRRPPRLPRPRPRPNDWPRP | 0.24 |
| RRIRVRPPRLPRPRPRPSDHPRP | -0.0923 |
| RRIRMRPPRLPRPRPRPPEMPRP | 0.329 |
| RRIRYRPPRLPRPRPRPVWKPRP | 0.0654 |
| RRIRKRPPRLPRPRPRPLIRPRP | -0.0949 |
| RRIRTRPPRLPRPRPRPHSSPRP | -0.119 |
| RRIRLRPPRLPRPRPRPMMGPRP | -0.0316 |
| RRIRYRPPRLPRPRPRPINSPRP | -0.184 |
| RRIRLRPPRLPRPRPRPAAAPRP | 1.04 |
| RRIRCRPPRLPRPRPRPKARPRP | 0.315 |
| RRIRYRPPRLPRPRPRPEIGPRP | 0.066 |
| RRIRCRPPRLPRPRPRPAAYPRP | -0.101 |
| RRIRSRPPRLPRPRPRPVKGPRP | -0.0577 |
| RRIRKRPPRLPRPRPRPMEIPRP | 0.155 |

| Sequence | shrunken log2 fold change |
| --- | --- |
| RRIRWRPPRLPRPRPRPSQIPRP | -0.165 |
| RRIRLRPPRLPRPRPRPCRGPRP | 0.157 |
| RRIRRRPPRLPRPRPRPCEMPRP | 0.36 |
| RRIRMRPPRLPRPRPRPWMWPRP | -0.0668 |
| RRIRGRPPRLPRPRPRPLWYPRP | 0.298 |
| RRIRLRPPRLPRPRPRPFVYPRP | -0.476 |
| RRIRNRPPRLPRPRPRPHHTPRP | -0.459 |
| RRIRDRPPRLPRPRPRPTDIPRP | -0.231 |
| RRIRYRPPRLPRPRPRPACRPRP | -0.077 |
| RRIRRRPPRLPRPRPRPSQAPRP | 0.113 |
| RRIRCRPPRLPRPRPRPDAWPRP | 0.141 |
| RRIRQRPPRLPRPRPRPQEAPRP | 0.0238 |
| RRIRKRPPRLPRPRPRPFMNPRP | -0.0366 |
| RRIRHRPPRLPRPRPRPDPQPRP | 0.108 |
| RRIRNRPPRLPRPRPRPYQVPRP | -0.0131 |
| RRIRVRPPRLPRPRPRPHQGPRP | 0.105 |
| RRIRHRPPRLPRPRPRPHYIPRP | -0.35 |
| RRIRCRPPRLPRPRPRPPEHPRP | 0.0824 |
| RRIRCRPPRLPRPRPRPWWQPRP | 0.0101 |
| RRIRLRPPRLPRPRPRPDYMPRP | -0.548 |
| RRIRKRPPRLPRPRPRPVPRPRP | 0.72 |
| RRIRWRPPRLPRPRPRPQVEPRP | -0.00667 |

| Sequence | shrunken log2 fold change |
| --- | --- |
| RRIRWRPPRLPRPRPRPVDAPRP | 0.434 |
| RRIRCRPPRLPRPRPRPIIFPRP | -0.726 |
| RRIRMRPPRLPRPRPRPGQCPRP | 0.234 |
| RRIRFRPPRLPRPRPRPPHVPRP | 0.203 |
| RRIRYRPPRLPRPRPRPFTEPRP | -0.955 |
| RRIRKRPPRLPRPRPRPAQLPRP | 0.0282 |
| RRIRKRPPRLPRPRPRPTCHPRP | 0.169 |
| RRIRERPPRLPRPRPRPQKMPRP | -0.28 |
| RRIRNRPPRLPRPRPRPGDQPRP | 0.0802 |
| RRIRMRPPRLPRPRPRPTDNPRP | 0.188 |
| RRIRPRPPRLPRPRPRPRHKPRP | -0.0467 |
| RRIRARPPRLPRPRPRPNIYPRP | -0.418 |
| RRIRCRPPRLPRPRPRPYKMPRP | -1.66 |
| RRIRTRPPRLPRPRPRPGIAPRP | -0.0278 |
| RRIRFRPPRLPRPRPRPHTTPRP | -0.155 |
| RRIRQRPPRLPRPRPRPCYSPRP | -0.0444 |
| RRIRQRPPRLPRPRPRPYNTPRP | -0.325 |
| RRIRMRPPRLPRPRPRPRVWPRP | 2.08 |
| RRIRKRPPRLPRPRPRPCYGPRP | -0.237 |
| RRIRHRPPRLPRPRPRPKELPRP | -0.00676 |
| RRIRLRPPRLPRPRPRPFHDPRP | -0.713 |
